Laboratory results reported in patent publication US20110165161A1, “ANTI-EPCAM ANTIBODIES THAT INDUCE APOPTOSIS OF CANCER CELLS AND METHODS USING SAME” (priority 2009, published 2011).
Substitutions are numbered along the chain they refer to.

Tests used:
[1] = target: T1, EGFI-Cr1 wild type (first EGF-like repeat of human EpCAM fused to the constant region of human immunoglobulin … (human, UniProt P01857-1 99-330 = IgG part)); experiment: direct ELISA, coated EGFI-Cr1 fusion, 0.1 µg/ml antibody
T1 construct: cDNA covered aa 1-63; Expressed in COS-7 cells; also called WT; EpCAM EGF-1 fusion protein WT
Experimental: (§1) A direct ELISA was used for testing the reactivity of anti-EpCAM antibodies toward variant EpCAM mutants. Briefly, purified EpCAM EGF-1 fusion proteins (WT, Q24A, E25K, E26D, A35T, N37R, F39A, V40E, N41A, N42E, N43A, R44G, Q45A, Q47A or T49A) and irrelevant control (CEA-Cr1) were pre-diluted to 0.5 μg/ml in coating buffer (8.4 g NaHCO₃, 3.4 g Na₂CO₃ in 1 L H₂O, pH 9.5) and aliquoted (100 μl/well) into 96-well plates. […] Plates were then washed 3 times with PBST followed by the addition of the enzyme substrate TMB (BD Biosciences, Cat. No. 555214). […] The optical densities at 450 nm wavelength were measured on an ELISA plate reader.

EGFI-Cr1 Q47A = target: T2, EGFI-Cr1 Q47A (human, UniProt P16422 24-63); experiment: as above
T2 construct: not shown: the constant region of human immunoglobulin gamma 1 heavy chain (Cr1) fused at the C-terminus
T2 chain: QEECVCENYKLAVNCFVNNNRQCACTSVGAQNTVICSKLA
Experimental: as §1

EGFI-Cr1 N37R = target: T3, EGFI-Cr1 N37R (human); experiment: as above
T3 construct: not shown: The fused constant region of human immunoglobulin gamma 1 heavy chain (Cr1)
T3 chain: T2 chain with N14R, A24Q
Experimental: as §1

EGFI-Cr1 A35T = target: T4, EGFI-Cr1 A35T (human, UniProt P16422 24-63); experiment: as above
T4 construct: not shown: The fused constant region of human immunoglobulin gamma 1 heavy chain (Cr1)
T4 chain: T2 chain with A12T, A24Q
Experimental: as §1

EGFI-Cr1 Q45A = target: T5, EGFI-Cr1 Q45A (human, UniProt P16422 24-63); experiment: as above
T5 construct: not shown: the constant region of human immunoglobulin gamma 1 heavy chain (Cr1) fused at the C-terminus
T5 chain: T2 chain with Q22A, A24Q
Experimental: as §1

EGFI-Cr1 Q24A = target: T6, EGFI-Cr1 Q24A (human, UniProt P16422 25-63); experiment: as above
T6 construct: not shown: The fused constant region of human immunoglobulin gamma 1 heavy chain (Cr1)
T6 chain: T2 chain with Q1A, A24Q
Experimental: as §1

EGFI-Cr1 R44G = target: T7, EGFI-Cr1 R44G (human, UniProt P16422 24-63); experiment: as above
T7 construct: not shown: the constant region of human immunoglobulin gamma 1 heavy chain (Cr1) fused at the C-terminus
T7 chain: T2 chain with R21G, A24Q
Experimental: as §1

EGFI-Cr1 V40E = target: T8, EGFI-Cr1 V40E (human); experiment: as above
T8 construct: not shown: The fused constant region of human immunoglobulin gamma 1 heavy chain (Cr1)
T8 chain: T2 chain with V17E, A24Q
Experimental: as §1

EGFI-Cr1 E25K = target: T9, EGFI-Cr1 E25K (human, UniProt P16422 24-63); experiment: as above
T9 construct: not shown: The fused constant region of human immunoglobulin gamma 1 heavy chain (Cr1)
T9 chain: T2 chain with E2K, A24Q
Experimental: as §1

EGFI-Cr1 N42E = target: T10, EGFI-Cr1 N42E (human, UniProt P16422 24-63); experiment: as above
T10 construct: not shown: the constant region of human immunoglobulin gamma 1 heavy chain (Cr1) fused at the C-terminus
T10 chain: T2 chain with N19E, A24Q
Experimental: as §1

EGFI-Cr1 N43A = target: T11, EGFI-Cr1 N43A (human, UniProt P16422 24-63); experiment: as above
T11 construct: not shown: the constant region of human immunoglobulin gamma 1 heavy chain (Cr1) fused at the C-terminus
T11 chain: T2 chain with N20A, A24Q
Experimental: as §1

EGFI-Cr1 F39A = target: T12, EGFI-Cr1 F39A (human, UniProt P16422 24-63); experiment: as above
T12 construct: not shown: The fused constant region of human immunoglobulin gamma 1 heavy chain (Cr1)
T12 chain: T2 chain with F16A, A24Q
Experimental: as §1

EGFI-Cr1 E26D = target: T13, EGFI-Cr1 E26D (human, UniProt P16422 24-63); experiment: as above
T13 construct: not shown: The fused constant region of human immunoglobulin gamma 1 heavy chain (Cr1)
T13 chain: T2 chain with E3D, A24Q
Experimental: as §1

EGFI-Cr1 T49A = target: T14, EGFI-Cr1 T49A (human, UniProt P16422 24-63); experiment: as above
T14 construct: not shown: the constant region of human immunoglobulin gamma 1 heavy chain (Cr1) fused at the C-terminus
T14 chain: T2 chain with A24Q, T26A
Experimental: as §1

EGFI-Cr1 N41A = target: T15, EGFI-Cr1 N41A (human, UniProt P16422 24-63); experiment: as above
T15 construct: not shown: The fused constant region of human immunoglobulin gamma 1 heavy chain (Cr1)
T15 chain: T2 chain with N18A, A24Q
Experimental: as §1

[2] = target: T16, human EpCAM (epithelial cell adhesion/activating molecule) (human, UniProt P16422 24-314); experiment: cell-based or functional assay
T16 sequence: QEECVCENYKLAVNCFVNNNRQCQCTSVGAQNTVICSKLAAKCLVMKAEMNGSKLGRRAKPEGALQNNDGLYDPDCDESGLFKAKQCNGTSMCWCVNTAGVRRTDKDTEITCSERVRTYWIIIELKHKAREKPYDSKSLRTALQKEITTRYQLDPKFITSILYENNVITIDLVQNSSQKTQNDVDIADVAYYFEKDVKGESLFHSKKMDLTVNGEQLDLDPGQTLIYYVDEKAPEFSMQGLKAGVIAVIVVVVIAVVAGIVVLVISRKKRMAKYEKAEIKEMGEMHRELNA

[3] = target: T16, human EpCAM (epithelial cell …); experiment: cell-based or functional assay; remark: listed apart in the source
[4] = target: T16, human EpCAM (epithelial cell …); experiment: flow cytometry, CHO/EpCAM cells, 0.1 µg/ml antibody
Experimental: A 300× dilution of human cell hyper-immune serum (HPS 300×) was used as binding positive control for both cell lines here. After 1 hr incubation at 4° C., cells were washed twice with 200 μl FACS buffer (1×PBS containing 1% FBS), stained with 100 μl of 1 μg/ml goat-anti-mouse IgG-PE (Southern Biotech, Cat. No. 1032-09) in FACS buffer and then incubated at 4° C. for 30 min. Cells were washed thrice with FACS buffer and analyzed by flow cytometry (BD LSR, BD Life Sciences).

B1: murine monoclonal antibody 2D11 (antibody, mouse IgG1, V domains shown)
VH: QIQLVQSGPELKKPGETVKISCKASGYTFTNYGMNWVKQAPGKGLKWMGWINTNTGEATYVEEFKGRVVFSLETSASTAYLQINNLKNEDTATYFCARIGYVWYFDVWGAGTTVTVSS
VL: DIVMSQSPSSLAVSAGEKVTMSCKSSQSLFSSRTRKNYLAWYQQKPGQSPKLLIYWASTRESGVPDRFTGSGSGTDFTLTINSVQAEDLAVYYCKHSNNLFTFGSGTKLEIKR
notes: Mouse IgG1, kappa, from hybridoma; also called m322-2D11.19
- relative binding activity (% of WT) [1]: 100%
- relative binding activity (% of WT) (EGFI-Cr1 Q47A): 96%
- relative binding activity (% of WT) (EGFI-Cr1 N37R): 94%
- relative binding activity (% of WT) (EGFI-Cr1 A35T): 95%
- relative binding activity (% of WT) (EGFI-Cr1 Q45A): 89%
- relative binding activity (% of WT) (EGFI-Cr1 Q24A): 99%
- relative binding activity (% of WT) (EGFI-Cr1 R44G): 7%
- relative binding activity (% of WT) (EGFI-Cr1 V40E): 93%
- relative binding activity (% of WT) (EGFI-Cr1 E25K): 93%
- relative binding activity (% of WT) (EGFI-Cr1 N42E): 58%
- relative binding activity (% of WT) (EGFI-Cr1 N43A): 5%
- relative binding activity (% of WT) (EGFI-Cr1 F39A): 97%
- relative binding activity (% of WT) (EGFI-Cr1 E26D): 97%
- relative binding activity (% of WT) (EGFI-Cr1 T49A): 95%
- relative binding activity (% of WT) (EGFI-Cr1 N41A): 12%
- % of Annexin V + PI staining (untreated background subtracted), NCI-H358, 10 µg/ml mAb, Exp1 [2]: 41%
- % of Annexin V + PI staining (untreated background subtracted), NCI-H358, 10 µg/ml mAb, Exp2 [2]: 32%
- % of Annexin V + PI staining (untreated background subtracted), NCI-H358, 10 µg/ml mAb, Exp3 [2]: 47%
- % of Annexin V + PI staining (untreated background subtracted), NCI-H358, 10 µg/ml mAb, Exp4 [2]: 44%
- % of Annexin V + PI staining (untreated background subtracted), NCI-H358, 10 µg/ml mAb, Exp5 [2]: 33%
- % Annexin V/PI-positive cells, DLD-1, 1.0 µg/ml mAb [3]: 18%
- % Annexin V/PI-positive cells, DLD-1, 3.0 µg/ml mAb [3]: 41%
- % Annexin V/PI-positive cells, DLD-1, 10 µg/ml mAb [3]: 48%
- % Annexin V/PI-positive cells, FaDu, 1.0 µg/ml mAb [3]: 34%
- % Annexin V/PI-positive cells, FaDu, 3.0 µg/ml mAb [3]: 45%
- % Annexin V/PI-positive cells, FaDu, 10 µg/ml mAb [3]: 46%
- % Annexin V/PI-positive cells, LNCaP, 1.0 µg/ml mAb [3]: 40%
- % Annexin V/PI-positive cells, LNCaP, 3.0 µg/ml mAb [3]: 39%
- % Annexin V/PI-positive cells, LNCaP, 10 µg/ml mAb [3]: 40%
- % Annexin V/PI-positive cells, NCI-H520, 1.0 µg/ml mAb [3]: 41%
- % Annexin V/PI-positive cells, NCI-H520, 3.0 µg/ml mAb [3]: 44%
- % Annexin V/PI-positive cells, NCI-H520, 10 µg/ml mAb [3]: 52%
- % Annexin V/PI-positive cells, NCI-N87, 1.0 µg/ml mAb [3]: 45%
- % Annexin V/PI-positive cells, NCI-N87, 3.0 µg/ml mAb [3]: 48%
- % Annexin V/PI-positive cells, NCI-N87, 10 µg/ml mAb [3]: 51%
- % Annexin V/PI-positive cells, NIH:OVCAR-3, 1.0 µg/ml mAb [3]: 43%
- % Annexin V/PI-positive cells, NIH:OVCAR-3, 3.0 µg/ml mAb [3]: 55%
- % Annexin V/PI-positive cells, NIH:OVCAR-3, 10 µg/ml mAb [3]: 56%
- % Annexin V/PI-positive cells, T-47D, 1.0 µg/ml mAb [3]: 36%
- % Annexin V/PI-positive cells, T-47D, 3.0 µg/ml mAb [3]: 48%
- % Annexin V/PI-positive cells, T-47D, 10 µg/ml mAb [3]: 45%
- MFI [4]: 3720 MFI
